The text below walks through data of the RNAGym collection of RNA variant scans (doi:10.7554/elife.80360).

The labels stand for the following.
B1: Hairpin Ribozyme (parent)
chain: GUCCUCUUUCACGUGCGCGUGAAAGAGAGAAGUGAACCAGAGAAACACACGUUGUGGUAUAUUACCUGGUA

The variants in this data set derive from B1. The experiment in a line: self-cleavage, relative activity (ratio to wild type); higher = more cleavage; co-transcriptional.
On to GUCCUCUUUCACUUGCGCGUGCAAGAGAGAAGUGAACCAGAGAAACACACGUUGUGGUAUAUUACCUGGUA, for which the self-cleavage stood at 0.533.
For GUCCUCUUUCACCUGCGCGUGAAAGAGAGAAGUCAACCAGAGAAACACACGUUGUGGUAUAUUACCUGGUA the value was 1.1.
With GUCCUCUUUCACCUGCGCGUGAAAGAGAGAAGUUAACCAGAGAAACACACGUUGUGGUAUAUUACCUGGUA, the self-cleavage was determined as 1.1.
For GUCCUCUUUCACUUGCGCGUGAAAGAGAGAAGUGAACCAGACAAACACACGUUGUGGUAUAUUACCUGGUA the value was 0.227; for GUCCUCUUUCACUUGGGCGUGAAAGAGAGAAGUGAACCAGAGAAACACACGUUGUGGUAUAUUACCUGGUA, 0.655.
With GUCCUCUUUCACUUGCGCGUGAAAGAGAGAAGUGAACCGGAGAAACACACGUUGUGGUAUAUUACCUGGUA the figure was 0.273; with GUCCUCUUUCACUUGCGCGUGAAAGAGAGAAGUGAACCAGAGAAACACACGUUAUGGUAUAUUACCUGGUA, 0.518.
With GUCCUCUUUCACUUGCGCGUCAAAGAGAGAAGUGAACCAGAGAAACACACGUUGUGGUAUAUUACCUGGUA the figure was 0.431; with GUCCUCUUUCACUUGCGCGUAAAAGAGAGAAGUGAACCAGAGAAACACACGUUGUGGUAUAUUACCUGGUA, 0.595.
For GUCCUCUUUCACUUGCGCGUGAAAGAGAGAAGUGAACCAGAGAGACACACGUUGUGGUAUAUUACCUGGUA, the self-cleavage was 0.199.
For GUCCUCUUUCACUUGCGCGUGAAAGAGAGAAGUGAACCAGAGACACACACGUUGUGGUAUAUUACCUGGUA the value was 0.0986; for GUCCUCUUUCACUUGCGCGUGAAAGAGAGAAGUGAACCAGAGAAACACACGUUGUGGUAUAUUACCUGGUU, 0.684.
As to GUCCUCUUUCACUUGCGCGUGAAAGAGAGAAGUGAACCAGAGAAACACACGUUGUGGUAUAUUACCUGGUA, the self-cleavage turned out to be 0.763.
For GUCCUCUUUCACCUGCGCGUGAAAGAGAGAAGUGAACCAGAGAAACACAAGUUGUGGUAUAUUACCUGGUA the value was 0.137.
On to GUCCUCUUUCACCUGCGCGUGAAAGAGAGAAGUGAACCAGAGAAACACAUGUUGUGGUAUAUUACCUGGUA, for which the self-cleavage was determined as 0.281.
Consider GUCCUCUUUCACUUGCGCGUGAAAGAGAGAAGUGAACCAGAGAAACACAUGUUGUGGUAUAUUACCUGGUA, for which the self-cleavage is 0.268.
GUCCUCUUUCACUUGCGCGUGAAAGAGAGAAGUGAACCAGAGAAACAGACGUUGUGGUAUAUUACCUGGUA: the self-cleavage is 0.106.
As for GUCCUCUUUCACUUGCGCGUGAAAGAGAGAAGUGAACCAGAGAAACACACGUUGUGUUAUAUUACCUGGUA, the self-cleavage is 0.202.
Regarding GUCCUCUUUCACUUGCGCGUGAAAGAGAGAAGUGAACCAGAGAAACACACGUUGUGCUAUAUUACCUGGUA, the self-cleavage came out at 0.173.
With GUCCUCUUUCACCUGCGCGUUAAAGAGAGAAGUGAACCAGAGAAACACACGUUGUGGUAUAUUACCUGGUA, the self-cleavage worked out at 0.49.
With GUCCUCUUUCACCUGCGCGUGAAAGAGAGAAGUGAACCAGAGAAACACACGUUGUGGUAUAGUACCUGGUA the figure was 0.185; with GUCCUCUUUCACCUGCGCGUGAAAGAGAGAAGUGAACCAGAGAAACACACGUUGUGGUAUAAUACCUGGUA, 0.143.
In the case of GUCCUCUUUCACUUGCGCGUGAAGGAGAGAAGUGAACCAGAGAAACACACGUUGUGGUAUAUUACCUGGUA, the self-cleavage is 0.681.
Take GUCCUCUUUCACCUGCGCGUGAAAGAGAUAAGUGAACCAGAGAAACACACGUUGUGGUAUAUUACCUGGUA: the self-cleavage was 0.0913.
On to GUCCUCUUUCACCUGCGCGUGAAAGAGAGAAGUGAACCAGAGAAACACACGUUGUGGUAUAUUACCUGGAA, for which the self-cleavage is 0.475.
With GUCCUCUUUCACCUGCGCGUGAAAGAGAGAAGUGAACCAGAGAAACACACGUUGUGGUAUAUUACCUGGCA the figure was 0.716.
In the case of GUCCUCUUUCACUUGCGCGUGAAAGAAAGAAGUGAACCAGAGAAACACACGUUGUGGUAUAUUACCUGGUA, the self-cleavage amounted to 0.347.
On to GUCCUCUUUCACUUGCGCGUGAAAGAUAGAAGUGAACCAGAGAAACACACGUUGUGGUAUAUUACCUGGUA, for which the self-cleavage worked out at 0.215.
With GUCCUCUUUCACUUGCGCAUGAAAGAGAGAAGUGAACCAGAGAAACACACGUUGUGGUAUAUUACCUGGUA the figure was 0.73; with GUCCUCUUUCACCUGCGCGUGAAAGAGAGAAGUGAACCAGAGAAACACACGUUGUAGUAUAUUACCUGGUA, 0.137; with GUCCUCUUUCACUUGCGCGUGAAAGAGAGCAGUGAACCAGAGAAACACACGUUGUGGUAUAUUACCUGGUA, 0.166.
With GUCCUCUUUCACUUGCGCGUGAAAGAGAGAAGUGAACCAGAGAAACACACGUUGUGGUAUAUUACCUUGUA the figure was 0.243; with GUCCUCUUUCACUUGCGCGUGAAAGAGAGAAGUGAACCAAAGAAACACACGUUGUGGUAUAUUACCUGGUA, 0.342.
With GUCCUCUUUCACUUGCGCGUGAAAGAGAGAAGUGAACCAGAGAAACCCACGUUGUGGUAUAUUACCUGGUA the figure was 0.326; with GUCCUCUUUCACUUGCGCGUGAAAGAGAGAAGUGAACCAGAGAAACUCACGUUGUGGUAUAUUACCUGGUA, 0.129; with GUCCUCUUUCACUUGCGCGUGAAAGAGAGAAGUGAACCAGAGAAACGCACGUUGUGGUAUAUUACCUGGUA, 0.143.
As for GUCCUCUUUCACUUGCUCGUGAAAGAGAGAAGUGAACCAGAGAAACACACGUUGUGGUAUAUUACCUGGUA, the self-cleavage was 0.712.
For GUCCUCUUUCACCUGCGCGUGAAAGAGAGAAGUGAACCAGAGAAACACACGUUGUGUUAUAUUACCUGGUA the value was 0.164.
